In the nanobody polyreactivity screen of Harvey et al. (2022):

Assay: yeast display, Sf9 membrane polyspecificity reagent, FACS + sequencing; frameworks hold sequencing errors
Procedure, shortened: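 In a synthetic yeast display library (Saccharomyces cerevisiae BJ5465), nanobody expression was induced with galactose for 36–48 hours. FACS gates were set low and high (top ~1%) using anti-HA fluorescence for expression and streptavidin fluorescence for binding of the Sf9 membrane reagent. Each polyreactivity label is drawn from the gate of origin.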

Row | Sequence | polyreactivity (PSR sort gate)
1 | QVQLVESGGGLVQAGGSLRLSCAASGLTFPQYAMGWYRQAPGKERELVAAISKTGGSTYYADSVKGRFTISRDNAKNTVYLQMNSLKPEDTAVYYCAAVESGDRGQRNNYWGQGTQVTVSS | high polyreactivity
2 | QVQLVESGGGLVQAGGSLRLSCAASGSIFYGNAMGWYRQAPGKERELVAGISWSGGSTYYADSVKGRFTISRDNAKNTVYFQMNSLKPEDTAVYYCATVADEPRAYSGYEESDYWGQGTQVTVSS | low polyreactivity
3 | QVQLVESGGGLVQAGGSLRLSCAASGRIFTGNAMGWYRQAPGKESQLVAAITRNGGSTYYADSVKGRFTISRDNEKYTVYLQMNRLKPEDTAVYYCNARYSTTYYGTIYRGMDYWGQGSQVTVSS | high polyreactivity
4 | QVQLVESGGCLVQAGGSLRLSCAASGSIFGANTMGWYRQAPGKESELVAAISSGGNTYYADSVKGRFTISRDNAKNTVYLQMNSLKPEDTAVYYCNAQTRYRYQYGFLGGTGYNYWGQGTQVTVSS | low polyreactivity
5 | QVQLVESGGGLLQAGGSLRLSCAASGFIFHHYGMGWYRQAPGKERELVAGDTHYADSVKGRFTISRDNAKNTVYLQMNSLKPEDTGVYYCNAYWKDDFEDGPGRRGMDYWGQGTQVTVSS | low polyreactivity
6 | QVQLVESGGGLVQAGGSLRLSCAASGFIFPAYAMGWYRQAPGKERELVAAITSNGGSTYYADSVKGRFTITRDNAKNTVYLQMNSLKPEDTAVYYCNADWYWDYGWVYPEYYYWGQGTQVTVSS | high polyreactivity
7 | QVQLVESGGGLVQAGGSLRLSCAASGSIFWGYAMGWYRQAPGKERELVATITYGGDSTYYADSVKGRFTISRDNAKNTVYLQMNSLKPEDTAVYYCNVGVEPYDYDYWGQGTQVTVSS | low polyreactivity
8 | QVQLVESGGGLVQAGGSLRLSCAASGSIFPIYAMGWYRQAPGKERELVAALNRSGGSTYYADSVKGRFTISRDNAKNTVYLQMNSLKPEDTAVYYCNADYGYHNQLFWGYYGWSSDHWGQGTQVTVSS | low polyreactivity
9 | QVHLVESGGGLVQAGCSLRLSCAASGSTIYRYAMGWYRQAPGKERELVASINGGDDTYYADSVKGRFTISRDNAKNNVYLQMTSLKPEDTAVYYCAAEVYGSWPFDTYYYWGQGTQVTVSS | high polyreactivity
10 | QVQLVESGGGLVQAGGSLRLSCAASGFIFAWYAMGWYRQAPGKERELVASISVSDGSTYYADSVKGRFTISRDNAKNTVYLQMNSLKPEDTAVYYCAADRFYDQAYDYWGQGTQVTVSS | low polyreactivity
11 | QVQLVESGGGLVQAGGSLRLSCAASGSTFDRYAMGWYRQAPGKERELVAAISHSGGRTYYADSVKGRFTISRDNAKNTVYLQMNSLKPEDTAVYYCAAKSRSGTEAAYGYWGQGTQVTVSS | low polyreactivity
12 | QVQLVESGGGLVQAGGSLRLSCAASGRIFTRYTMGWYRQAPGKERELVASITSSGSSTYYADSVKGRFTISRDNAKNTVYLQMNSLKPEDTAVYYCAARSRLRYLYDYWGQGTQVTVSS | high polyreactivity
13 | QVQLVESGGGLVQAGGSLRLSCADSGITFYRYAMGWYRQAPGKERELVATITSSGGRTYYADSVKGRFTISRDNAKNTVYLQLNSLKPEDTAVYYSAAGKFSYRVYYQFRGGNYWGQGTQVTVSS | high polyreactivity
14 | QVQQQESGGGLVQAGGSLRLSCAASGTIFQLTVMGRYRQASGKERELVASIDYGGNTNYADSVKGRFTISRDNAKNTVYLQMNSLKPEDTAVYFCAASSDSWTTHPYWGQGTQVTVSS | low polyreactivity
15 | QVQLVESGGGIVQAGGSLRLSCASSGFTLGLYAMGWYRQAPGKERELVAVISGRGSRTYYADSVKGRFTISRDNAKNTVYLQMNSLKPEDTAVYYCAASYRTYYRTGYDYWGQGTQVTVSS | high polyreactivity
16 | QVQLVESGGGLVQAGGSLRLSCAASGRIFPGNAMGWYRQAPGKERELVATITESDSSTYYADSVKGRFTISRDNAKNTVYLQMNSLKPDDTAVYYFAAGPSVYWRYDYWGQGTQVTVSS | low polyreactivity
17 | QVQLVESGGGLVQAGGSLRLSCAASGSIFPYYAMGWYRQAPGKERELVADITSSVGSTYYADSVKGRFTISRDNAKNTVYLQMNSLKPEDTAVYYCAALYWFYVYPFTEYDYWGQGTQVTVSS | low polyreactivity
18 | QVQLVESGGGLVQAGGSLRLSCAASGSIFTENEMGWYRQAPGKERELVATITITGSTNYADSVKGRFTISRDNAKNTVYLQMNSLKPEDTAVYYCAAEQPYKSPWTFGGYDYWGQGTQVTVSS | low polyreactivity
19 | QVQLVESGGGLVQAGGSLRLSCAASGSIFFPNAMGWYRQAPGKERELVAAISWSGDSTYADSVKGRFTISRDNAKNTVYLQMNSLKPEETAVYSCAAVYLWWSYEFDYWGQGTHVTVSS | low polyreactivity
20 | QVQLVESGGALVQAGGSLRLSCAASGSTFPYYAMGWYRQAPGKERELVAAISRGGGITYYADSVKGRLTISRDNAKNTVYLQMISLKPEDTAVYYCAARGFWWPYTYYYWGQGTQVTVSS | high polyreactivity
21 | QVQLVESGGGLVQAGGSLRLSSAASGFIFYDYAMGWYRQAPGKERALVAAIRSSDGGTYYADSVKGRFTISRDNAKNTVYLQMNSLKPEDTAVYYCAARPSYYDYDYWGQGTQVTVSS | low polyreactivity
22 | QVQLVESGGGLVQAGGSLRLSCAASGRIFAHNAMGWYRQAPGKERELVAAISGTGGRTYYADSVKGRFTISRDNAKNTVYLQMNSLKPEDTAVYYCARRPTHRTGVLDWEYDYWGQGTQVTVSS | low polyreactivity
